The record followed here is patent US20250154217A1 (ZONHON BIOPHARMA INSTITUTE, published 2025).

Sequences and labels used below:
B1: IL-2 mutant G438 (ligand)
chain: APTSSSTRKTQLQLEHLLLDLQMILNGINNYKNPKLTRMLTFKFYMPWKATELKHLQCLEEELKPLEEVLNLAQSKNFHLRPRDLISNINVIVLELKGSETTFMCEYADETATIVEFLNRWITFAQSIISTLT
B2: IL-2 mutant G438P12 (ligand)
chain: B1 chain with L18M, L19S, W48R
B3: IL-2 mutant G438P16 (ligand)
chain: B1 chain with L18M, L19S, R38E, T41E, P82A, S87D
notes: also called GP16
B4: IL-2 mutant G493 (ligand)
chain: B1 chain with K43W, K54W, K64H, K97E
B5: IL-2 mutant G438P7 (ligand)
chain: B1 chain with R38E, T41E
notes: also called GP7
B6: IL-2 mutant G496 (ligand)
chain: B1 chain with K43W, K54W, K64H, K97R
B7: IL-2 mutant G438P10 (ligand)
chain: B1 chain with L18M, L19S, H79E, R81D
notes: also called GP10
B8: IL-2 mutant G438P8 (ligand)
chain: B1 chain with L72F, R81D
notes: also called GP8
B9: IL-2 mutant G438P6 (ligand)
chain: B1 chain with F42A, K43D
notes: also called GP6
B10: IL-2 mutant G438P3 (ligand)
chain: B1 chain with G27C, F78C
notes: also called GP3
B11: IL-2 mutant G438P14 (ligand)
chain: B1 chain with L18M, L19S, R38E, T41E
notes: also called GP14
B12: IL-2 mutant G438P1 (ligand)
chain: B1 chain with L18M, L19S
notes: also called GP1
B13: IL-2 mutant G438P15 (ligand)
chain: B1 chain with L18M, L19S, R38E, T41E, Y45R, L72F
notes: also called GP15
B14: IL-2 mutant G438P2 (ligand)
chain: B1 chain with K35E, K43D
notes: also called GP2
B15: IL-2 mutant G438P9 (ligand)
chain: B1 chain with L18M, L19S, F42A
notes: also called GP9
B16: IL-2 mutant G498 (ligand)
chain: B1 chain with K43W, K54W, K64H, K97F
B17: IL-2 mutant G438P17 (ligand)
chain: B1 chain with L18M, L19S, R81D, P82T, R83E, S87D
notes: also called GP17
B18: IL-2 mutant G438P19 (ligand)
chain: PTSSSTRKTQLQLEHLMSDLQMILNGINNYKNPKLTRMLTFKFYMPWKATELKHLQCLEEELKPLEEVLNLAQSKNFHLRPRDLISNINVIVLELKGSETTFMCEYADETATIVEFLNRWITFSQSSSQH
notes: Printed: lack of the first amino acid A, K8R/L18M/L19S/K48W/A125S, IISTLT from position 128 mutated to SSQH; also called GP19

Substitutions are numbered along the chain they refer to. Names may count otherwise.

The target of one assay is T1, IL-2Rβ(CD122) (UniProt P14784 27-239, limits assumed).
T1 construct: also called IL-2β
T1 sequence (looked up): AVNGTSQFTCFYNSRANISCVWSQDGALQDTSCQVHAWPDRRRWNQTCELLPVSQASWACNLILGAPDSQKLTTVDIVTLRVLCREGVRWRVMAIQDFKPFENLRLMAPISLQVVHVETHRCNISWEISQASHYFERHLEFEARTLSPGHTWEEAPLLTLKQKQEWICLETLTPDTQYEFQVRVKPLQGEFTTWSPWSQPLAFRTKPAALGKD
As to the kind of experiment: BLI (Fortebio). How it is done:
(§1) The affinity between IL-2 mutants and their receptors was detected by Bio-Layer Interferometry (BLI).
(§2) Receptor solution: IL-2Rα(CD25), IL-2Rβ(CD122) and IL-2Rβ/γ receptor samples were diluted to 15-20 μg/mL with 1×Kinetics buffer, mixed and stored in a dark place.
(§3) Samples were added to the sample wells according to the protocol design, and 200 μL of reagent or sample was added to each well.
B1 came in with a Kd of 15.3 nM.
B2 gave a Kd of 7.29 nM.
For B3, the Kd turned out to be 142 nM.
With B4, the binding result is reported as “no binding”.
Take B5: the Kd turned out to be 64.2 nM.
As to B6, the binding result is listed as “no binding”.
The molecule B7 returned a Kd of 30.5 nM.
The same measure, in the same setting: under B8 stands 12 nM; under B9, 52.3 nM.
Molecule B10 returned a Kd of 12.1 nM.
Same read-out and setting: to B11 belongs 42600 nM.
In turn, B12 registered a Kd of 18.3 nM.
The molecule B13 yielded a Kd of 87.1 nM.
In the case of B14, the affinity, expressed as Kd, was 18.3 nM.
Still for that read-out and setting: to B15 belongs 26.4 nM.
On to B16, for which the binding result is given as “no binding”.
The molecule B17 had a Kd of 61 nM.
Same read-out and setting: to B18 belongs 12.9 nM.

For the next assay, the target named is T2, IL-2Rα(CD25) (UniProt P01589 22-213, limits assumed).
T2 construct: also called IL-2α
T2 sequence (looked up): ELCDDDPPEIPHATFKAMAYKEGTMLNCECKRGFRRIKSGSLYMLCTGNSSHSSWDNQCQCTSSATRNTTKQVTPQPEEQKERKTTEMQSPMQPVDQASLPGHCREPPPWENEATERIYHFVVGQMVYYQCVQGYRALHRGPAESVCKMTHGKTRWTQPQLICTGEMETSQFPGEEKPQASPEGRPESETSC
Kind of assay: BLI (Fortebio). How it is done:
as §1, §2, §3
B1 came in with a Kd of 13.4 nM.
The same measure, in the same setting: under B2 stands 8.48 nM; under B3, 353 nM.
Take B4: the binding result is recorded as “no binding”.
Consider B5, for which the Kd was 178000 nM.
On to B6, for which the binding result is recorded as “no binding”.
For B7, binding was put at a Kd of 36.1 nM.
In turn, B8 registered a Kd of 131 nM.
Still for that read-out and setting: under B9 stands 119 nM; under B10, 26.4 nM.
On to B11, for which the binding result is on record as “no binding”.
Molecule B12 had a Kd of 17.9 nM.
On the same count and under the same terms, under B13 stands 170 nM; under B14, 68.9 nM; under B15, 34.7 nM.
B16: the binding result is recorded as “no binding”.
Regarding B17, the Kd is 94.9 nM.
The same measure, in the same setting: to B18 belongs 38.6 nM.

The next assay concerns the target T3, IL-2Rβ/γ receptor (UniProt P14784 27-239; P31785 23-262, limits assumed).
T3 sequence (looked up) 1: T1 sequence (looked up)
T3 sequence (looked up) 2: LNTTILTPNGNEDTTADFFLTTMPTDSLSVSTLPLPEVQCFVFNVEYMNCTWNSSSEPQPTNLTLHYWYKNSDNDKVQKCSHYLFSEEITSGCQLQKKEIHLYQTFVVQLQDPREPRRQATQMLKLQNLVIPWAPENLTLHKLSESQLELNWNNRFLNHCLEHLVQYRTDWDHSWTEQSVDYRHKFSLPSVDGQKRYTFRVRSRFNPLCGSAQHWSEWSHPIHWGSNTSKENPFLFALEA
Kind of assay: BLI (Fortebio). The method, then: as §1, §2, §3
B5: the Kd came to 35.4 nM.
Still for that read-out and setting: to B8 belongs 32.7 nM.
Still for that read-out and setting: under B11 stands 39.6 nM.
For the molecule B13, binding was characterised by a dissociation constant (Kd) of 136000 nM.
